The supplement of paper PMC11246515
± gives the standard deviation of the averaged measurements.

Experiment: total protein half-life in vivo (active degradation + dilution); higher = more stable protein
[1] = E. coli NCM3722 delta-clpP delta-lon delta-hslV, growth: N-lim chemostat, doubling time 6 h
[2] = wild type E. coli NCM3722, growth: C-lim chemostat, doubling time 3 h
[3] = wild type E. coli NCM3722, growth: C-lim chemostat, doubling time 6 h
[4] = wild type E. coli NCM3722, growth: C-lim chemostat, doubling time 12 h
[5] = E. coli NCM3722 delta-clpP, growth: N-lim chemostat, doubling time 6 h
[6] = E. coli NCM3722 delta-hslV, growth: N-lim chemostat, doubling time 6 h
[7] = E. coli NCM3722 delta-lon, growth: N-lim chemostat, doubling time 6 h
[8] = E. coli NCM3722 delta-smpB, growth: N-lim chemostat, doubling time 6 h
[9] = wild type E. coli NCM3722, growth: N-lim chemostat, doubling time 6 h
[10] = wild type E. coli NCM3722, growth: N-lim chemostat, doubling time 12 h
[11] = wild type E. coli NCM3722, growth: P-lim chemostat, doubling time 6 h
[12] = wild type E. coli NCM3722, growth: P-lim chemostat, doubling time 12 h

Row | Sequence | total protein half-life in vivo [1] [h] | total protein half-life in vivo [2] [h] | total protein half-life in vivo [3] [h] | total protein half-life in vivo [4] [h] | total protein half-life in vivo [5] [h] | total protein half-life in vivo [6] [h] | total protein half-life in vivo [7] [h] | total protein half-life in vivo [8] [h] | total protein half-life in vivo [9] [h] | total protein half-life in vivo [10] [h] | total protein half-life in vivo [11] [h] | total protein half-life in vivo [12] [h]
1 | MLILKNVTAVQLHPAKVQEGVDIAIENDVIVAIGDALTQRYPDASFKEMHGRIVMPGIVCSHNHFYSGLSRGIMANIAPCPDFISTLKNLWWRLDRALDEESLYYSGLICSLEAIKSGCTSVIDHHASPAYIGGSLSTLRDAFLKVGLRAMTCFETTDRNNGIKELQEGVEENIRFARLIDEAKKATSEPYLVEAHIGAHAPFTVPDAGLEMLREAVKATGRGLHIHAAEDLYDVSYSHHWYGKDLLARLAQFDLIDSKTLVAHGLYLSKDDITLLNQRDAFLVHNARSNMNNHVGYNHHLSDIRNLALGTDGIGSDMFEEMKFAFFKHRDAGGPLWPDSFAKALTNGNELMSRNFGAKFGLLEAGYKADLTICDYNSPTPLLADNIAGHIAFGMGSGSVHSVMVNGVMVYEDRQFNFDCDSIYAQARKAAASMWRRMDALA | 3.15 | 2.62 | 4.3 | 11.2 | – | – | – | – | – | – | – | –
2 | MLKARNCGWIRLLPLFMLSLPVQAELRCVANAVDIESFFSAATAEDKQQVEQAINSSVNLVPFGLSASNWKVHRGDLVVEGNIESNQKLIVLGNLTVKGNISTFSLSNPWVILGNVTATNIVADSPLLITGSINASGLVFIDSYYDNPSTIKGSINARGIFINDIIAPVVASSTNSEFMVRASDKHDTENVKKALMIINPDAYYWGLINDEDALKEIFKRSNIRMAGNVCNQMKKEALFRPKPSPELVQELQMLDEGKVAAFEGRDIATFDLAVMRTLPRLKGISANLRKQLINSNDEQTIESMARYMPDNEILELTDQQLGYQPVVLGLLDREPLSVEIMTRMSRLPDGVGPLNLALRENLPLDIVMTLAKRDWDMIIQELYKDAWLLPESIIDGYIRSDDSSIRQVGAGGQLTYNQAMQLANDSSNNVVTSLAFKLAEMKHHGQLLRMTPQESDKVAGYLYQKFENDDDLIRVLFLALPDNLQFNFVKRMEKKSPAYFCCRDMQVIHSDAALQRLLTRFNDPEGWSNLAKNQYLSTSMKQKIWQRALSHRKNNPKADSDAYETSADMILSELISHGEVDDQMLLNATALIRSDDWDFLESALISWDNLPAVVLKELQQNTPRNDIWAKFFLRQENSSRAQVDEALRVYYALDPDALAQLDVLAKQPDRIWWSTLAKSNLTFFKFGALNNRHTPPAVLAAEIDPEWWIVAMNNPRFPVDVLKARLKRDPLLALELVNPELDLVRQLALNGKTRAIREQAMRKLDELY | > 8 | – | – | – | – | – | – | – | – | – | – | –
3 | MLKKCLPLLLLCTAPVFAKPVLTVYTYDSFAADWGPGPVVKKAFEADCNCELKLVALEDGVSLLNRLRMEGKNSKADVVLGLDNNLLDAASKTGLFAKSGVAADAVNVPGGWNNDTFVPFDYGYFAFVYDKNKLKNPPQSLKELVESDQNWRVIYQDPRTSTPGLGLLLWMQKVYGDDAPQAWQKLAKKTVTVTKGWSEAYGLFLKGESDLVLSYTTSPAYHILEEKKDNYAAANFSEGHYLQVEVAARTAASKQPELAQKFLQFMVSPAFQNAIPTGNWMYPVANVTLPAGFEKLTKPATTLEFTPAEVAAQRQAWISEWQRAVSR | 4.4 ± 0.16 | 3.19 ± 0.21 | 6.11 ± 0.24 | 11 ± 0.89 | 5.26 ± 0.44 | 6.48 ± 0.38 | 5.82 ± 0.072 | 6.33 ± 0.42 | 6.3 ± 0.13 | 14 ± 2.2 | 5.65 ± 0.23 | 12.9 ± 0.7
4 | MLKKILLLALLPAIAFAEELPAPVKAIEKQGITIIKTFDAPGGMKGYLGKYQDMGVTIYLTPDGKHAISGYMYNEKGENLSNTLIEKEIYAPAGREMWQRMEQSHWLLDGKKDAPVIVYVFADPFCPYCKQFWQQARPWVDSGKVQLRTLLVGVIKPESPATAAAILASKDPAKTWQQYEASGGKLKLNVPANVSTEQMKVLSDNEKLMDDLGANVTPAIYYMSKENTLQQAVGLPDQKTLNIIMGNK | 5.17 ± 0.63 | 3.016 ± 0.006 | 6.29 ± 0.74 | 11.3 ± 1.4 | 5.5 ± 0.14 | 6.05 ± 0.24 | 6.69 ± 1 | 5.98 ± 0.33 | 6.16 ± 0.33 | 12.6 ± 0.62 | 5.78 ± 0.55 | 12.5 ± 0.27
5 | MLKPDNLPVTFGKNDVEIIARETLYRGFFSLDLYRFRHRLFNGQMSHEVRREIFERGHAAVLLPFDPVRDEVVLIEQIRIAAYDTSETPWLLEMVAGMIEEGESVEDVARREAIEEAGLIVKRTKPVLSFLASPGGTSERSSIMVGEVDATTASGIHGLADENEDIRVHVVSREQAYQWVEEGKIDNAASVIALQWLQLHHQALKNEWA [Q93K97] | – | 3.05 ± 0.36 | 5.79 ± 0.16 | 11 ± 0.82 | 4.47 ± 0.8 | 4.6 ± 0.65 | 4.759 ± 0.044 | 4.63 ± 0.46 | 4.23 ± 0.34 | 7.1411 ± 0.0014 | 5.98 ± 0.42 | 12.9 ± 0.41
6 | MLKPEMIEKLNEQMNLELYSSLLYQQMSAWCSYHTFEGAAAFLRRHAQEEMTHMQRLFDYLTDTGNLPRINTVESPFAEYSSLDELFQETYKHEQLITQKINELAHAAMTNQDYPTFNFLQWYVSEQHEEEKLFKSIIDKLSLAGKSGEGLYFIDKELSTLDTQN [P0A998] | 5.44 ± 1.7 | – | 5.8 ± 0.56 | – | 3.41 ± 0.55 | 3.94 ± 1.3 | 4.12 ± 0.86 | 3.38 ± 1.6 | 3.33 ± 0.25 | 4.479 ± 0.025 | 4.92 ± 0.45 | 10.6 ± 0.44
7 | MLKRKKVKPITLRDVTIIDDGKLRKAITAASLGNAMEWFDFGVYGFVAYALGKVFFPGADPSVQMVAALATFSVPFLIRPLGGLFFGMLGDKYGRQKILAITIVIMSISTFCIGLIPSYDTIGIWAPILLLICKMAQGFSVGGEYTGASIFVAEYSPDRKRGFMGSWLDFGSIAGFVLGAGVVVLISTIVGEANFLDWGWRIPFFIALPLGIIGLYLRHALEETPAFQQHVDKLEQGDREGLQDGPKVSFKEIATKYWRSLLTCIGLVIATNVTYYMLLTYMPSYLSHNLHYSEDHGVLIIIAIMIGMLFVQPVMGLLSDRFGRRPFVLLGSVALFVLAIPAFILINSNVIGLIFAGLLMLAVILNCFTGVMASTLPAMFPTHIRYSALAAAFNISVLVAGLTPTLAAWLVESSQNLMMPAYYLMVVAVVGLITGVTMKETANRPLKGATPAASDIQEAKEILVEHYDNIEQKIDDIDHEIADLQAKRTRLVQQHPRIDE [P0C0L7] | 5.246 ± 0.018 | – | 4.62 ± 0.43 | 7.56 ± 3.2 | 4.97 ± 0.25 | 4.59 ± 0.35 | 4.34 ± 0.14 | 5.04 ± 0.79 | 4.46 ± 0.41 | 10.4 ± 2.3 | 4.78 ± 0.066 | 7.9 ± 0.16
8 | MLKTISPLISPELLKVLAEMGHGDEIIFSDAHFPAHSMGPQVIRADGLLVSDLLQAIIPLFELDSYAPPLVMMAAVEGDTLDPEVERRYRNALSLQAPCPDIIRINRFAFYERAQKAFAIVITGERAKYGNILLKKGVTP [P0AEN8] | 6.09 ± 0.27 | 3.05 ± 0.092 | 6.7 ± 0.48 | 13.2 ± 0.83 | 6.25 ± 0.67 | 6.67 ± 1.6 | – | 5.51 ± 0.094 | 5.36 ± 0.38 | 10.4 ± 1.1 | 5.89 ± 0.63 | 12.3 ± 0.71
